Reference: the supplement of paper PMC10567573

B1: MIA2 (parent)
chain: SVIEPVQESSFRSRKIAVEDENDL

Variants of: B1
Assay: protein stability index of a GFP-peptide fusion (GPS, HEK-293T) (PSI 1-6); higher = more stable
Conditions: c terminus: a fixed tail appended
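Further: lentivirally expressed fusions sorted by FACS into six bins by GFP to DsRed ratio, PSI derived from sequencing read proportions per bin multiplied by bin number.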

Variant | protein stability index
SVIEPLQESSFRSRKIAVEDENDL [V6L] | 5.16
SVIEPRQESSFRSRKIAVEDENDL [V6R] | 5.27
SVIEPTQESSFRSRKIAVEDENDL [V6T] | 5.39
SVIEPPQESSFRSRKIAVEDENDL [V6P] | 5.18
SVIEPQQESSFRSRKIAVEDENDL [V6Q] | 5.37
SVIEPKQESSFRSRKIAVEDENDL [V6K] | 5.62
SVIEPMQESSFRSRKIAVEDENDL [V6M] | 5.46
SVIEPIQESSFRSRKIAVEDENDL [V6I] | 5.34
SVIEPWQESSFRSRKIAVEDENDL [V6W] | 4.53
SVIEPNQESSFRSRKIAVEDENDL [V6N] | 4.92
SVIEPYQESSFRSRKIAVEDENDL [V6Y] | 4.91
SVIEPSQESSFRSRKIAVEDENDL [V6S] | 5.27
SVIEPVQESSFRSRMIAVEDENDL [K15M] | 5.11
SVIEPVQESSFRSRPIAVEDENDL [K15P] | 5.65
SVIEPVQESSFRSRAIAVEDENDL [K15A] | 5.63
SVIEPVQESSFRSRSIAVEDENDL [K15S] | 5.61
SVIEPVQESSFRSRTIAVEDENDL [K15T] | 5.11
SVIEPVQESSFRSRGIAVEDENDL [K15G] | 4.85
SVIEPVQESSFRSRDIAVEDENDL [K15D] | 5.52
SVIEPVQESSFRSRRIAVEDENDL [K15R] | 5.43
SVIEPVQESSFRSRFIAVEDENDL [K15F] | 5.03
SVIEPVQESSFRSRNIAVEDENDL [K15N] | 5.67
SVIEPVQESSFRSRVIAVEDENDL [K15V] | 5.43
SVIEPVQESSFRSRYIAVEDENDL [K15Y] | 5.29

Variant | protein stability index
SVIEPVQESSFRSRWIAVEDENDL [K15W] | 4.44
SVIEPVQESSFRSRCIAVEDENDL [K15C] | 5.2
SVIEPVQESSFRSRLIAVEDENDL [K15L] | 5.14
SVIEPVQESSFRSREIAVEDENDL [K15E] | 5.69
SVIEPVQESSFRSRHIAVEDENDL [K15H] | 5.36
SVIEPVQESSFRSRIIAVEDENDL [K15I] | 5.05
SVIEPVQESSFRSRQIAVEDENDL [K15Q] | 5.71
SVIEPVGESSFRSRKIAVEDENDL [Q7G] | 5.13
SVIEPVHESSFRSRKIAVEDENDL [Q7H] | 5.34
SVIEPVDESSFRSRKIAVEDENDL [Q7D] | 5.25
SVIEPVKESSFRSRKIAVEDENDL [Q7K] | 4.98
SVIEPVVESSFRSRKIAVEDENDL [Q7V] | 5.28
SVIEPVYESSFRSRKIAVEDENDL [Q7Y] | 5.21
SVIEPVWESSFRSRKIAVEDENDL [Q7W] | 5.13
SVIEPVEESSFRSRKIAVEDENDL [Q7E] | 5.25
SVIEPVAESSFRSRKIAVEDENDL [Q7A] | 4.21
SVIEPVIESSFRSRKIAVEDENDL [Q7I] | 4.93
SVIEPVFESSFRSRKIAVEDENDL [Q7F] | 4.46
SVIEPVPESSFRSRKIAVEDENDL [Q7P] | 5.49
SVIEPVRESSFRSRKIAVEDENDL [Q7R] | 4.92
SVIEPVCESSFRSRKIAVEDENDL [Q7C] | 3.93
SVIEPVLESSFRSRKIAVEDENDL [Q7L] | 5.29
SVIEPVNESSFRSRKIAVEDENDL [Q7N] | 4.82
SVIEPVSESSFRSRKIAVEDENDL [Q7S] | 5.46

Variant | protein stability index
SVIEPVTESSFRSRKIAVEDENDL [Q7T] | 5.32
SVIEPVMESSFRSRKIAVEDENDL [Q7M] | 5.04
SVIEPVQEHSFRSRKIAVEDENDL [S9H] | 4.98
SVIEPVQENSFRSRKIAVEDENDL [S9N] | 5.09
SVIEPVQEVSFRSRKIAVEDENDL [S9V] | 5.19
SVIEPVQETSFRSRKIAVEDENDL [S9T] | 5.19
SVIEPVQELSFRSRKIAVEDENDL [S9L] | 4.48
SVIEPVQEKSFRSRKIAVEDENDL [S9K] | 5.44
SVIEPVQEGSFRSRKIAVEDENDL [S9G] | 5.08
SVIEPVQEASFRSRKIAVEDENDL [S9A] | 5.35
SVIEPVQECSFRSRKIAVEDENDL [S9C] | 5.09
SVIEPVQEMSFRSRKIAVEDENDL [S9M] | 4.37
SVIEPVQEWSFRSRKIAVEDENDL [S9W] | 4.86
SVIEPVQERSFRSRKIAVEDENDL [S9R] | 5.45
SVIEPVQEISFRSRKIAVEDENDL [S9I] | 5.31
SVIEPVQEPSFRSRKIAVEDENDL [S9P] | 5.66
SVIEPVQEFSFRSRKIAVEDENDL [S9F] | 4.64
SVIEPVQEESFRSRKIAVEDENDL [S9E] | 5.05
SVIEPVQEYSFRSRKIAVEDENDL [S9Y] | 5.25
SVIEPVQEQSFRSRKIAVEDENDL [S9Q] | 5.35
SVIEPVQEDSFRSRKIAVEDENDL [S9D] | 5.35
SVIEPVQTSSFRSRKIAVEDENDL [E8T] | 4.52
SVIEPVQVSSFRSRKIAVEDENDL [E8V] | 5.14
SVIEPVQYSSFRSRKIAVEDENDL [E8Y] | 4.49

Variant | protein stability index
SVIEPVQRSSFRSRKIAVEDENDL [E8R] | 4.79
SVIEPVQSSSFRSRKIAVEDENDL [E8S] | 4.42
SVIEPVQMSSFRSRKIAVEDENDL [E8M] | 4.58
SVIEPVQWSSFRSRKIAVEDENDL [E8W] | 4.66
SVIEPVQLSSFRSRKIAVEDENDL [E8L] | 5.02
SVIEPVQASSFRSRKIAVEDENDL [E8A] | 5.28
SVIEPVQFSSFRSRKIAVEDENDL [E8F] | 4.63
SVIEPVQNSSFRSRKIAVEDENDL [E8N] | 5.64
SVIEPVQDSSFRSRKIAVEDENDL [E8D] | 4.48
SVIEPVQISSFRSRKIAVEDENDL [E8I] | 4.83
SVIEPVQQSSFRSRKIAVEDENDL [E8Q] | 5.1
SVIEPVQKSSFRSRKIAVEDENDL [E8K] | 4.78
SVIEPVQGSSFRSRKIAVEDENDL [E8G] | 5.28
SVIEPVQCSSFRSRKIAVEDENDL [E8C] | 4.97
SVIEPVQPSSFRSRKIAVEDENDL [E8P] | 5.27
SVIEPVQHSSFRSRKIAVEDENDL [E8H] | 5.02
SVIEPVQESSFRIRKIAVEDENDL [S13I] | 5.11
SVIEPVQESSFRARKIAVEDENDL [S13A] | 5.65
SVIEPVQESSFRTRKIAVEDENDL [S13T] | 5.66
SVIEPVQESSFRNRKIAVEDENDL [S13N] | 5.61
SVIEPVQESSFRGRKIAVEDENDL [S13G] | 5.44
SVIEPVQESSFRVRKIAVEDENDL [S13V] | 5.23
